Experimental data from paper PMC8833744, “Strategic Decoy Peptides Interfere with MSI1/AGO2 Interaction to Elicit Tumor Suppression Effects” (Cancers, 2022).

Target: recombinant His-tagged AGO2 (UniProt Q9UKV8)
Assay: SPR; Biacore T200; His-AGO2 immobilised on a CM5 chip by amine coupling (~7000 RU); peptides 20 to 1280 nM in HBS-P (10 mM HEPES, 150 mM NaCl, 0.005% T20, pH 7.4), 30 µL/min; Langmuir 1:1 model

Sequence of recombinant His-tagged AGO2 (Q9UKV8 whole entry): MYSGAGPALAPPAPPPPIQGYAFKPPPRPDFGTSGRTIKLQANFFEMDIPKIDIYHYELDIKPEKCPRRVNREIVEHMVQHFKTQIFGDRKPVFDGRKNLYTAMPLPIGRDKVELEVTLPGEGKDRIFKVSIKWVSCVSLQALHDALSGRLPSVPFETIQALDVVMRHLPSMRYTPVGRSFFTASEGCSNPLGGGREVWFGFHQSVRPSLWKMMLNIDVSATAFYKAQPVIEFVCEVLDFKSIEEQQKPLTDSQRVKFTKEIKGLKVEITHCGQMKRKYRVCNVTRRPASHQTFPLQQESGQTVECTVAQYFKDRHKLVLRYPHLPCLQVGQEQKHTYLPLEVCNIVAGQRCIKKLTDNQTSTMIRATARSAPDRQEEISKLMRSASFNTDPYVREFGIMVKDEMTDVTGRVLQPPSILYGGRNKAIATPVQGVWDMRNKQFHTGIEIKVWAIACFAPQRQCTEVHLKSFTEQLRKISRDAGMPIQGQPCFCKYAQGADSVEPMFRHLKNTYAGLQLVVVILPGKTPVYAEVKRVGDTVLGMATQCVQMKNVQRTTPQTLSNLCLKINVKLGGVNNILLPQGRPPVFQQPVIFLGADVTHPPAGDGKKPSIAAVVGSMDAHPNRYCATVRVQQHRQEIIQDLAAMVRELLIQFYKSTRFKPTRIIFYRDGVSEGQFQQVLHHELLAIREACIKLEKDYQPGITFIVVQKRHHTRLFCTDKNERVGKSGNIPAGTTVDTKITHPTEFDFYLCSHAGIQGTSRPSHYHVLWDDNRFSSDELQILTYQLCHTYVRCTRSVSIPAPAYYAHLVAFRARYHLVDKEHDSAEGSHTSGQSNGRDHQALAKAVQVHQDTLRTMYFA

negative control peptide (CP) as used in the SPR
Kd: 107 µM
